Measured values published in US20260193326A1 (published 2026).

Assays:
AAV9 [1] = molecular target: T1, AAV9 (adeno-associated virus serotype 9 (AAV9)); assay: 1 mL column of A4-008 coupled to agarose gel (10.74 mg/g gel); AAV capsid particles bound
T1 construct: also called adeno-associated virus serotype 9; AAV9 antigen

AAV5 [2] = molecular target: T2, AAV5 (adeno-associated virus serotype 5 (AAV5)); assay: as above
T2 construct: also called adeno-associated virus serotype 5; AAV5 antigen

AAV6 [3] = molecular target: T3, AAV6 (adeno-associated virus serotype 6 (AAV6)); assay: as above
T3 construct: also called adeno-associated virus serotype 6

AAV8 [4] = molecular target: T4, AAV8 (adeno-associated virus serotype 8 (AAV8)); assay: as above
T4 construct: also called adeno-associated virus serotype 8; AAV8 antigen

AAV9 [5] = molecular target: T1, AAV9; assay: 1 mL column of A4-008 coupled to agarose gel (9.77 mg/g gel); AAV capsid particles bound
AAV5 [6] = molecular target: T2, AAV5; assay: as above
AAV6 [7] = molecular target: T3, AAV6; assay: as above
AAV8 [8] = molecular target: T4, AAV8; assay: as above
AAV9 [9] = molecular target: T1, AAV9; assay: 1 mL column of A4-014 coupled to agarose gel (3.12 mg/g gel); AAV capsid particles bound
AAV5 [10] = molecular target: T2, AAV5; assay: as above
AAV6 [11] = molecular target: T3, AAV6; assay: as above
AAV8 [12] = molecular target: T4, AAV8; assay: as above
AAV9 [13] = molecular target: T1, AAV9; assay: 1 mL column of A4-024 coupled to agarose gel (6.36 mg/g gel); AAV capsid particles bound
AAV2 = molecular target: T5, AAV2 (adeno-associated virus serotype 2 (AAV2), UniProt P03135 1-735); assay: as above
T5 construct: also called adeno-associated virus serotype 2; AAV2 antigen

AAV5 [14] = molecular target: T2, AAV5; assay: as above
AAV6 [15] = molecular target: T3, AAV6; assay: as above
AAV8 [16] = molecular target: T4, AAV8; assay: as above

B1: A4-008 (VHH)
VHH: VQLQESGGGLVQAGGSLRLSCAASGRAFSINTMGWYRQAPPKQRELVATVTRGGSTNYAGSVKGRFTISRDNAKNTIYLQMNSLRPEDTAVYYCHVDEVRQSSWTTSNIWGQGTQVTVSS
- binding capacity (AAV9 [1]): 9.17e+13 VP
- binding capacity (AAV5 [2]): 8.95e+13 VP
- binding capacity (AAV6 [3]): 9.43e+13 VP
- binding capacity (AAV8 [4]): 1.16e+14 VP
- binding capacity (AAV9 [5]): 8.83e+13 VP
- binding capacity (AAV5 [6]): 8.56e+13 VP
- binding capacity (AAV6 [7]): 8.78e+13 VP
- binding capacity (AAV8 [8]): 9.47e+13 VP

B2: A4-014 (VHH)
VHH: VQLQESGGGLVQPGGSLRLSCAASGSRFSINSMGWYRQAPGKQRELVATVTRGGNTNYAGSVKGRFTISRDNAKNTVYLQMNSLRPEDTAVYYCHVDEVRESSWTTSNLWGQGTQVTVSS
- binding capacity (AAV9 [9]): 4.3e+13 VP
- binding capacity (AAV5 [10]): 3.22e+13 VP
- binding capacity (AAV6 [11]): 2.59e+13 VP
- binding capacity (AAV8 [12]): 3.83e+13 VP

B3: A4-024 (VHH)
VHH: VQLQESGGGLVQPGGSLRLSCAASGSNFRINTMGWYRQAPGKQRELVATVTRGGSTNYADSVKGRFTISRDNPKNTVYLQMNSLRPEDTAVYYCHVDEVRESSWTTSNLWGQGTQVTVSS
- binding capacity (AAV9 [13]): 6.5e+13 VP
- binding capacity (AAV2): 7.65e+13 VP
- binding capacity (AAV5 [14]): 4.8e+13 VP
- binding capacity (AAV6 [15]): 6.09e+13 VP
- binding capacity (AAV8 [16]): 5.17e+13 VP
